# Results taken from patent US9802997B2, “Peptides and combination of peptides for use in immunotherapy against various tumors” (immatics biotechnologies GmbH, priority 2015, dated 2017).
# Target: HLA-A*02:01 (Homo sapiens, UniProt P04439, D140Y/D185E/D98H/E176V/E277Q/G131W/G231S/I119V/I121R/I166T/I218V/L300P/L318F/N151K/N90K/P208A/P217A/Q86G/Q94H/R138H/R169H/T345S)
# Assay: MHC binding assay (UV-ligand exchange, beta2m ELISA)
# Details: binding to HLA-A*02:01, β2m ELISA
# Excerpt: Candidate peptides for T cell based therapies according to the present invention were further tested for their MHC binding capacity (affinity). The individual peptide-MHC complexes were produced by UV-ligand exchange, where a UV-sensitive peptide is cleaved upon UV-irradiation, and exchanged with the peptide of interest as analyzed. Only peptide candidates that can effectively bind and stabilize the peptide-receptive MHC molecules prevent dissociation of the MHC complexes. To determine the yield of the exchange reaction, an ELISA was performed based on the detection of the light chain (β2m) of stabilized MHC complexes. The assay was performed as generally described in Rodenko et al. (Rodenko et al., 2006).
# 96 well MAXISorp plates (NUNC) were coated over night with 2 ug/ml streptavidin in PBS at room temperature, washed 4× and blocked for 1 h at 37° C. in 2% BSA containing blocking buffer. Refolded HLA-A*02:01/MLA-001 monomers served as standards, covering the range of 15-500 ng/ml. Peptide-MHC monomers of the UV-exchange reaction were diluted 100 fold in blocking buffer. Samples were incubated for 1 h at 37° C., washed four times, incubated with 2 ug/ml HRP conjugated anti-β2m for 1 h at 37° C., washed again and detected with TMB solution that is stopped with […]. Absorption was measured at 450 nm. Candidate peptides that show a high exchange yield (preferably higher than 50%, most preferred higher than 75%) are generally preferred for a generation and production of antibodies or fragments thereof, and/or T cell receptors or fragments thereof, as they show sufficient avidity to the MHC molecules and prevent dissociation of the MHC complexes.
row,"Peptide exchange (MHC class I binding score, peptide exchange yield)",Substance
1,++++ (≧75% = ++++),1 (KLQEKIQEL; listed as Homo sapiens) [compound 1]
2,+++ (≧50 = +++),3 (RVIDDSLVVGV; listed as Homo sapiens) [compound 3]
3,+++ (≧50 = +++),5 (GLVDIMVHL; listed as Homo sapiens) [compound 5]
4,++++ (≧75% = ++++),6 (FLNAIETAL; listed as Homo sapiens) [compound 6]
5,+++ (≧50 = +++),7 (ALLQALMEL; listed as Homo sapiens) [compound 7]
6,+++ (≧50 = +++),10 (QLIEKNWLL; listed as Homo sapiens) [compound 10]
7,+++ (≧50 = +++),11 (LLDPKTIFL; listed as Homo sapiens) [compound 11]
8,+++ (≧50 = +++),12 (RLLDPKTIFL; listed as Homo sapiens) [compound 12]
9,+++ (≧50 = +++),13 (RLHDENILL; listed as Homo sapiens) [compound 13]
10,+++ (≧50 = +++),16 (SLADLSLLL; listed as Homo sapiens) [compound 16]
11,++ (≧20% = ++),18 (KTASINQNV; listed as Homo sapiens) [compound 18]
12,++ (≧20% = ++),19 (KVFELDLVTL; listed as Homo sapiens) [compound 19]
13,++ (≧20% = ++),20 (ALVEKGEFAL; listed as Homo sapiens) [compound 20]
14,+++ (≧50 = +++),21 (YLMDDFSSL; listed as Homo sapiens) [compound 21]
15,+++ (≧50 = +++),22 (LMYPYIYHV; listed as Homo sapiens) [compound 22]
16,+++ (≧50 = +++),23 (ALLSPLSLA; listed as Homo sapiens) [compound 23]
17,+++ (≧50 = +++),24 (KVWSDVTPL; listed as Homo sapiens) [compound 24]
18,+++ (≧50 = +++),25 (LLWGHPRVALA; listed as Homo sapiens) [compound 25]
19,+++ (≧50 = +++),26 (VLDGKVAVV; listed as Homo sapiens) [compound 26]
20,++ (≧20% = ++),28 (IKVTDPQLLEL; listed as Homo sapiens) [compound 28]

row,"Peptide exchange (MHC class I binding score, peptide exchange yield)",Substance
1,+++ (≧50 = +++),30 (IITEVITRL; listed as Homo sapiens) [compound 30]
2,+++ (≧50 = +++),31 (GLLETTGLLAT; listed as Homo sapiens) [compound 31]
3,++ (≧20% = ++),33 (TLDRNSLYV; listed as Homo sapiens) [compound 33]
4,+++ (≧50 = +++),36 (TVLQELINV; listed as Homo sapiens) [compound 36]
5,++ (≧20% = ++),37 (QIVELIEKI; listed as Homo sapiens) [compound 37]
6,++ (≧20% = ++),38 (VLQQESNFL; listed as Homo sapiens) [compound 38]
7,+++ (≧50 = +++),40 (KIWEELSVLEV; listed as Homo sapiens) [compound 40]
8,+++ (≧50 = +++),41 (IVTEIISEI; listed as Homo sapiens) [compound 41]
9,++ (≧20% = ++),42 (KQMSISTGL; listed as Homo sapiens) [compound 42]
10,+++ (≧50 = +++),44 (AVFNLVHVV; listed as Homo sapiens) [compound 44]
11,+++ (≧50 = +++),45 (FLPVSVVYV; listed as Homo sapiens) [compound 45]
12,+++ (≧50 = +++),47 (GLNGFNVLL; listed as Homo sapiens) [compound 47]
13,+++ (≧50 = +++),48 (KISDFGLATV; listed as Homo sapiens) [compound 48]
14,++ (≧20% = ++),49 (KLIGNIHGNEV; listed as Homo sapiens) [compound 49]
15,++ (≧20% = ++),51 (LDSEALLTL; listed as Homo sapiens) [compound 51]
16,++ (≧20% = ++),52 (TIGIPFPNV; listed as Homo sapiens) [compound 52]
17,+ (≧10% = +),53 (AQHLSTLLL; listed as Homo sapiens) [compound 53]
18,+++ (≧50 = +++),54 (YLVPGLVAA; listed as Homo sapiens) [compound 54]
19,+++ (≧50 = +++),55 (HLFDKIIKI; listed as Homo sapiens) [compound 55]
20,++ (≧20% = ++),57 (TLYPGRFDYV; listed as Homo sapiens) [compound 57]

row,"Peptide exchange (MHC class I binding score, peptide exchange yield)",Substance
1,+++ (≧50 = +++),58 (HLLGEGAFAQV; listed as Homo sapiens) [compound 58]
2,+++ (≧50 = +++),59 (ALADGIKSFLL; listed as Homo sapiens) [compound 59]
3,+++ (≧50 = +++),60 (YLFSQGLQGL; listed as Homo sapiens) [compound 60]
4,+++ (≧50 = +++),61 (ALYPKEITL; listed as Homo sapiens) [compound 61]
5,+++ (≧50 = +++),62 (SLVENIHVL; listed as Homo sapiens) [compound 62]
6,+++ (≧50 = +++),63 (KLLPMVIQL; listed as Homo sapiens) [compound 63]
7,++ (≧20% = ++),64 (SLYAGSNNQV; listed as Homo sapiens) [compound 64]
8,++ (≧20% = ++),65 (SLSEKSPEV; listed as Homo sapiens) [compound 65]
9,+++ (≧50 = +++),67 (FLIENLLAA; listed as Homo sapiens) [compound 67]
10,+++ (≧50 = +++),68 (QLMNLIRSV; listed as Homo sapiens) [compound 68]
11,++ (≧20% = ++),69 (LKVLKADVVL; listed as Homo sapiens) [compound 69]
12,++ (≧20% = ++),70 (GLTEKTVLV; listed as Homo sapiens) [compound 70]
13,++ (≧20% = ++),71 (HMSGKLTNV; listed as Homo sapiens) [compound 71]
14,++ (≧20% = ++),72 (VLSTRVTNV; listed as Homo sapiens) [compound 72]
15,++ (≧20% = ++),74 (GLAFLPASV; listed as Homo sapiens) [compound 74]
16,+++ (≧50 = +++),75 (ALLDGALQL; listed as Homo sapiens) [compound 75]
17,+++ (≧50 = +++),76 (FTAEFLEKV; listed as Homo sapiens) [compound 76]
18,++ (≧20% = ++),79 (TVLEEIGNRV; listed as Homo sapiens) [compound 79]
